These results are taken from patent publication EP4613859A1, “TLR SIGNALING INHIBITORY PEPTIDE AND COMPOSITION INCLUDING SAME FOR PREVENTION OR TREATMENT OF INFLAMMATORY DISEASES” (Korea Institute of Science and Technology, priority 2022, dated 2025).

The target in one assay is human MyD88 (human) (UniProt Q99836). The assay is described as follows: P8 phage display panning on plate-immobilised MyD88, after round 4, NGS.
UniProt Q99836, sequence (Q99836 155-296 limits assumed): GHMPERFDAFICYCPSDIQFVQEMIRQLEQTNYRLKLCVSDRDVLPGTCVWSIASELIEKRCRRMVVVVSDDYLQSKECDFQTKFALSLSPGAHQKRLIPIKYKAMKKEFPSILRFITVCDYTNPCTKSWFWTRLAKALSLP
The molecule YASSSWALDELLRILY came in with an NGS count of 2330 count and a Population of 0.9%.
For HWIDWEYFVGIEDHIK the same measures were 3420 count and 1.32%.
YAASPWWFDELVKIVG yielded an NGS count of 3430 count and a Population of 1.32%.
The corresponding values for IDDDHLTYLVRLLLSR are 3060 count and 1.18%.
For SPQEQDGFWVRLIEAL the same measures were 1840 count and 0.71%.
DPQDLEWFYERLFSQM: the NGS count worked out at 4490 count and the Population stood at 1.73%.
With DYASSTWWLRELLQIA, the NGS count was determined as 4110 count and the Population is 1.58%.
VANILGYHWIDWEYFV showed an NGS count of 2030 count and a Population of 0.78%.
Consider DWVWEHFFPMEEKDQT, for which the NGS count came to 1540 count and the Population was 0.59%.
As to YLRADDSWFWEKLLYA, the NGS count came to 4070 count and the Population came out at 1.57%.
Molecule GLSWGPYEWWMGLYDA came in with an NGS count of 1960 count and a Population of 0.76%.
The molecule MFGGDTFHDFLDLISM returned an NGS count of 1490 count and a Population of 0.57%.
For the molecule LEANDSLFWDRLLYSL, the NGS count came to 1460 count and the Population stood at 0.56%.

Another assay addresses human MAL (human) (UniProt P58753). The assay is described as follows: P8 phage display panning on plate-immobilised MAL, after round 4, NGS.
UniProt P58753, sequence (P58753 79-221 limits assumed): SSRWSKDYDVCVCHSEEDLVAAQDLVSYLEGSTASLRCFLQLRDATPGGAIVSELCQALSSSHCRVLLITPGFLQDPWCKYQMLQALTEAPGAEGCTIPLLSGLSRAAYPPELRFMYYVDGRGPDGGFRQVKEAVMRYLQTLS
On to HFFWIQLKSILGETSF, for which the NGS count is 3620 count and the Population worked out at 1.12%.
TFLGHLYNALVQAGIH: the NGS count worked out at 24700 count and the Population stood at 7.64%.
For the molecule LFFWESLKQLLRSDGR, the NGS count was 22600 count and the Population came to 5.97%.
As for SEFIQKIILWMNPKIV, the NGS count worked out at 4460 count and the Population amounted to 1.38%.
Consider WFYERLVSLILRDTKV, for which the NGS count came out at 79000 count and the Population amounted to 24.4%.
For YFLHFLLFSRPETEYI, the NGS count amounted to 17200 count and the Population worked out at 5.31%.
Molecule AFFWEQLRTVLGKPTM returned an NGS count of 11800 count and a Population of 3.65%.
KLFWEKFKEFFLPSLSR came in with an NGS count of 4890 count and a Population of 1.51%.

The target in another assay is human MyD88 (human) (UniProt Q99836). Kind of assay: P3 phage display panning on plate-immobilised MyD88, after round 4, NGS.
Molecule YTALTNSGFHTFRDND had an NGS count of 17600 count and a Population of 5.12%.
The corresponding values for LVAHEISKKMKIFATI are 17500 count and 5.08%.
The molecule PEKDNGGENAFINNIV registered an NGS count of 2500 count and a Population of 0.73%.
For the molecule HLLKEFDKKLITAFKD, the NGS count was 2400 count and the Population turned out to be 0.7%.
Molecule RKGDLISDELLIAIEE yielded an NGS count of 2450 count and a Population of 0.71%.
In turn, NELVHVWSSKANSLVG yielded an NGS count of 8820 count and a Population of 2.57%.
For YNFISHLYDALHRNRI the same measures were 2890 count and 0.84%.
The corresponding values for ESILNQLRRSSQSIAN are 1980 count and 0.58%.
As to DHHLDLPRGKAIKPEILG, the NGS count was 26700 count and the Population amounted to 7.78%.
The molecule YYLDPSHLRKQSGEFG yielded an NGS count of 2540 count and a Population of 0.74%.
As for YAFTGHLHRYLVQRGV, the NGS count was 13400 count and the Population turned out to be 3.91%.
GFLYQAFAREGFKIFM displayed an NGS count of 2580 count and a Population of 0.75%.
On to KNLFNELVSKNIRTFM, for which the NGS count was determined as 8540 count and the Population stood at 2.49%.
The molecule SENYATSPWALDELVL registered an NGS count of 5490 count and a Population of 1.89%.
With NGHESEIIKEIVDTIV, the NGS count came out at 4230 count and the Population amounted to 1.23%.
The corresponding values for TSHLHHALRLNKIETF are 2080 count and 0.6%.
Consider LKVESWRQALEKAGKL, for which the NGS count is 16800 count and the Population was found to be 4.91%.
In the case of SELRVVDDGSVSPLEM, the NGS count stood at 4870 count and the Population stood at 1.42%.
FLSYRALEKRFGPIGQ returned an NGS count of 3290 count and a Population of 0.96%.
Molecule PSEVRKQTGSLAKAFA displayed an NGS count of 2250 count and a Population of 0.66%.
As to KEVEGWRDALTKVASL, the NGS count came out at 5190 count and the Population was determined as 1.8%.
For the molecule SSFREGLWRLLELSKK, the NGS count turned out to be 79500 count and the Population came out at 23.1%.
AVDKETDKIQTPLKNA yielded an NGS count of 4790 count and a Population of 1.39%.
With LKWGDPYFWSKLRYAM, the NGS count is 8310 count and the Population amounted to 2.42%.
The corresponding values for EWIREQLRPALKERLP are 16800 count and 4.9%.

Another assay has as its target human MAL (human) (UniProt P58753). The assay is described as follows: P3 phage display panning on plate-immobilised MAL, after round 4, NGS.
As to LVAHEISKKMKIFATI, the NGS count came to 1670 count and the Population was 0.63%.
Turning to NELVHVWSSKANSLVG, the NGS count was 1840 count and the Population was 0.69%.
Molecule YNFISHLYDALHRNRI yielded an NGS count of 2680 count and a Population of 1.01%.
Molecule ESILNQLRRSSQSIAN yielded an NGS count of 3680 count and a Population of 1.38%.
Turning to DHHLDLPRGKAIKPEILG, the NGS count worked out at 2280 count and the Population is 0.86%.
For YAFTGHLHRYLVQRGV the same measures were 43800 count and 16.4%.
On to GFLYQAFAREGFKIFM, for which the NGS count turned out to be 1760 count and the Population was found to be 0.66%.
Molecule KNLFNELVSKNIRTFM returned an NGS count of 3260 count and a Population of 1.22%.
With LKVESWRQALEKAGKL, the NGS count was 5180 count and the Population was 2.32%.
For the molecule KEVEGWRDALTKVASL, the NGS count is 3760 count and the Population amounted to 1.41%.
On to SSFREGLWRLLELSKK, for which the NGS count amounted to 30000 count and the Population was 11.3%.
The corresponding values for LKWGDPYFWSKLRYAM are 5130 count and 1.93%.
Regarding EWIREQLRPALKERLP, the NGS count was determined as 2350 count and the Population was 0.88%.
